Results taken from the supplement of paper PMC10126150.
± gives the standard deviation of the averaged measurements.

What follows are sequences tested on ATP (assay: switch fluorescence ratio, 500 uM ATP over buffer (Cy3 cluster intensity, sum of 5 cycles each) (fold (ratio)); higher = stronger signal-on switching upon ATP binding; sequences stand for … in TCGTCGGCAGCGTCAGATGTGTATAAGAGACAGTTTTTTTTTTTTTTTTTTTTTTTTT…TC). Details: aptamer strand: ATP DNA aptamer (quencher-CACCTGGGGGAGTATTGCGGAGGAAGG + anchor), 100 nM annealed; ATP concentration: 500 uM.
Summary of the method: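 Five buffer/ATP imaging cycles were run on Cy3-labelled switching-strand clusters on a modified Illumina MiSeq flow-cell, with NaOH stripping and re-annealing between cycles. In each cycle, clusters annealed to 100 nM quencher-labelled ATP aptamer were imaged in selection buffer, then after 15 min with 500 uM ATP at 22 °C. Per cluster, the fluorescence ratio is summed target-cycle over summed buffer-cycle Cy3 intensity, averaged per switch-domain sequence. Only clusters within 100-1000 RFU were kept.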
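Further: ATP exposure 15 min at 22 °C before imaging.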

| Sequence | switch fluorescence ratio |
| --- | --- |
| GGTTAAAATC | 1.02 ± 0.023 |
| GGTTAAACGG | 1.02 ± 0.013 |
| GGTTAAAGGG | 1.07 ± 0.15 |
| GGTTAACCTG | 0.9959 ± 0.0062 |
| GGTTAAGGCG | 0.9569 ± 0.0079 |
| GGTTAAGTAG | 1.004 ± 0.0075 |
| GGTTAAGTGC | 1.01 ± 0.029 |
| GGTTAAGTGG | 1.01 ± 0.015 |
| GGTTAATTAG | 0.9819 ± 0.0077 |
| GGTTACCGTG | 0.997 ± 0.033 |
| GGTTACGCTA | 1.11 ± 0.074 |
| GGTTACGGGG | 1.01 ± 0.013 |
| GGTTACGGTA | 1.04 ± 0.031 |
| GGTTAGATTG | 1.01 ± 0.006 |
| GGTTAGGATG | 0.97 ± 0.025 |
| GGTTAGTATG | 1.01 ± 0.027 |
| GGTTATCGAG | 0.975 ± 0.037 |
| GGTTATGGCC | 1.01 ± 0.031 |
| GGTTATGGGA | 0.996 ± 0.032 |
| GGTTATGGTA | 0.9715 ± 0.0063 |
| GGTTATGTGT | 0.964 ± 0.014 |
| GGTTATTGGG | 0.98 ± 0.075 |
| GGTTATTGGT | 1.02 ± 0.021 |
| GGTTATTTA | 0.992 ± 0.035 |
| GGTTCAAGGT | 0.994 ± 0.027 |

| Sequence | switch fluorescence ratio |
| --- | --- |
| GGTTCAGGGC | 1.02 ± 0.047 |
| GGTTCATTTT | 1.01 ± 0.025 |
| GGTTCGAGAG | 0.964 ± 0.012 |
| GGTTCGGATC | 0.99316 ± 0.00058 |
| GGTTCGGCGG | 1.01 ± 0.045 |
| GGTTCGTCTG | 0.981 ± 0.021 |
| GGTTGAAAGT | 1.48 ± 0.69 |
| GGTTGAAGGT | 1 ± 0.03 |
| GGTTGACGAG | 0.986 ± 0.012 |
| GGTTGACTTA | 1.03 ± 0.011 |
| GGTTGAGATG | 0.982 ± 0.014 |
| GGTTGAGCGG | 0.993 ± 0.011 |
| GGTTGAGCTG | 0.945 ± 0.056 |
| GGTTGAGGTT | 1.04 ± 0.022 |
| GGTTGCAAGA | 1.01 ± 0.015 |
| GGTTGCACGC | 1.01 ± 0.0046 |
| GGTTGCAGCT | 0.975 ± 0.018 |
| GGTTGCCATA | 0.944 ± 0.025 |
| GGTTGCGCTT | 1.29 ± 0.39 |
| GGTTGGCCGT | 1.03 ± 0.051 |
| GGTTGGGATG | 0.951 ± 0.022 |
| GGTTGGGTTG | 0.987 ± 0.019 |
| GGTTGGTGGG | 0.969 ± 0.044 |
| GGTTGTATCG | 1 ± 0.05 |
| GGTTGTGCTT | 0.995 ± 0.0039 |

| Sequence | switch fluorescence ratio |
| --- | --- |
| GGTTTAAAGA | 1 ± 0.038 |
| GGTTTAAATG | 1.0317 ± 0.00089 |
| GGTTTAAGGC | 0.993 ± 0.047 |
| GGTTTAAGTT | 0.99 ± 0.03 |
| GGTTTAATAG | 0.986 ± 0.026 |
| GGTTTAATGT | 0.9927 ± 0.0098 |
| GGTTTAGGGG | 0.985 ± 0.032 |
| GGTTTAGTCA | 0.9719 ± 0.00067 |
| GGTTTATCGT | 0.974 ± 0.022 |
| GGTTTATGTT | 1 ± 0.019 |
| GGTTTATTGG | 1 ± 0.03 |
| GGTTTCATGA | 1.01 ± 0.026 |
| GGTTTCCGCC | 1.169 ± 0.0023 |
| GGTTTCGCCA | 0.9807 ± 0.0096 |
| GGTTTCGCTT | 1.03 ± 0.046 |
| GGTTTCGGGA | 1.01 ± 0.021 |
| GGTTTCTAAG | 1.01 ± 0.042 |
| GGTTTGAGTA | 1.02 ± 0.074 |
| GGTTTGCAGT | 1.003 ± 0.0093 |
| GGTTTGCTAG | 1.04 ± 0.072 |
| GGTTTGGATA | 0.985 ± 0.028 |
| GGTTTGGCGT | 0.981 ± 0.017 |
| GGTTTGGGCG | 1.03 ± 0.034 |
| GGTTTGGGCT | 0.983 ± 0.051 |
| GGTTTGGGGA | 0.983 ± 0.011 |

| Sequence | switch fluorescence ratio |
| --- | --- |
| GGTTTGGGGC | 1.03 ± 0.074 |
| GGTTTGGGTG | 0.995 ± 0.04 |
| GGTTTTAGGT | 0.988 ± 0.035 |
| GGTTTTATGA | 1.002 ± 0.0062 |
| GGTTTTGGGC | 1.02 ± 0.042 |
| GGTTTTGTAA | 0.982 ± 0.018 |
| GGTTTTGTTC | 1.09 ± 0.11 |
| GGTTTTGTTT | 0.9996 ± 0.0075 |
| GGTTTTTAAG | 0.995 ± 0.023 |
| GGTTTTTACA | 0.981 ± 0.024 |
| GGTTTTTATT | 0.992 ± 0.0092 |
| GGTTTTTCGG | 1.04 ± 0.014 |
| GGTTTTTGAG | 0.9564 ± 0.0045 |
| GGTTTTTGTA | 0.995 ± 0.025 |
| GGTTTTTTCT | 1.03 ± 0.088 |
| GTAAAAAGAG | 1 ± 0.011 |
| GTAAAAGTTG | 1 ± 0.026 |
| GTAAAGAAAA | 1.05 ± 0.081 |
| GTAAAGTTTT | 0.991 ± 0.018 |
| GTAAATTAGT | 1.02 ± 0.04 |
| GTAAATTATG | 0.986 ± 0.018 |
| GTAAATTGTG | 1.01 ± 0.047 |
| GTAAATTTTT | 1.01 ± 0.017 |
| GTAACTGCAG | 0.993 ± 0.051 |
| GTAAGATGTG | 1.03 ± 0.028 |
